doi:10.1101/2020.09.30.319905
Where “and” joins values, the source holds several entries; their conditions need not be identical. Equal values may be shown once.

Key:
[1] = molecular target: Truncated ApoE3, residues 80-255 (central helical repeat segment) (human) (UniProt P02649); test: SAXS
[2] = molecular target: Truncated ApoE3, residues 80-255 (central helical repeat segment) (human) (UniProt P02649); test: cross-linking

stoichiometry N [1]: 4
stoichiometry N [2]: 2 and 3
Substance: Truncated ApoE3, residues 80-255 (central helical repeat segment) (from UniProt P02649 80-255) (domain or fragment)
